B1: CL-2C mAb 1 (antibody, V domains shown)
VH: QVQLVQSGAEVMKPGSSVKVSCKASGYTFSWYWLEWVRQAPGHGLEWMGEIDPGTFTTHYNEKFKARVTFTADTSTSTAYMELSSLRSEDTAVYYCARFSHFSGSHYDYFDYWGQGTLVTVSS
VL: EIVMTQSPATLSVSPGERATLSCRASQHIGTNIHWYQQKPGQAPRLLIYYASESISGIPARFSGSGSGTEFTLTISSLQSEDFAVYYCQQSWSHPTTFGGGTKVEIK
notes: also called CL-20 mAb 1; VK28H94H + VH58H100BH
B2: CL-2C mAb 13 (antibody, V domains shown)
VH: QVQLVQSGAEVMKPGSSVKVSCKASGYTFSWYHLEWVRQAPGHGLEWMGEIDPGTFTTNYNEKFKARVTFTADTSTSTAYMELSSLRSEDTAVYYCARFSHFSGSHYDYFDYWGQGTLVTVSS
VL: EIVMTQSPATLSVSPGERATLSCRASQSIGTNIHWYQQKPGQAPRLLIYHASESISGIPARFSGSGSGTEFTLTISSLQSEDFAVYYCQQSWSHPTTFGGGTKVEIK
notes: also called VK50H94H + VH33H100BH
B3: CL-2C mAb 9 (antibody, V domains shown)
VH: QVQLVQSGAEVMKPGSSVKVSCKASGYTFSWYHLEWVRQAPGHGLEWMGEIDPGTFTTNYNEKFKARVTFTADTSTSTAYMELSSLRSEDTAVYYCARFSHFSGHNYDYFDYWGQGTLVTVSS
VL: EIVMTQSPATLSVSPGERATLSCRASQSIGTNIHWYQQKPGQAPRLLIYHASESISGIPARFSGSGSGTEFTLTISSLQSEDFAVYYCHQSDSWPTTFGGGTKVEIK
notes: also called VK50H92D89H + VH33H100AH
B4: CL-2C mAb 8 (antibody, V domains shown)
VH: QVQLVQSGAEVMKPGSSVKVSCKASGYTFSWYHLEWVRQAPGHGLEWMGEIDPGTFTTNYNEKFKARVTFTADTSTSTAYMELSSLRSEDTAVYYCARFSHFSGSHYDYFDYWGQGTLVTVSS
VL: EIVMTQSPATLSVSPGERATLSCRASQSIGTNIHWYQQKPGQAPRLLIYHASESISGIPARFSGSGSGTEFTLTISSLQSEDFAVYYCHQSDSWPTTFGGGTKVEIK
notes: also called VK50H92D89H + VH33H100BH
B5: CL-2C mAb 2 (antibody, V domains shown)
VH: QVQLVQSGAEVMKPGSSVKVSCKASGYTFSWYHLEWVRQAPGHGLEWMGEIDPGTFTTNYNEKFKARVTFTADTSTSTAYMELSSLRSEDTAVYYCARFSHFSGSNHDYFDYWGQGTLVTVSS
VL: EIVMTQSPATLSVSPGERATLSCRASQHIGTNIHWYQQKPGQAPRLLIYYASESISGIPARFSGSGSGTEFTLTISSLQSEDFAVYYCQQSWSHPTTFGGGTKVEIK
notes: also called CL-20 mAb 2; VK28H94H + VH33H100CH
B6: CL-2C mAb 4 (antibody, V domains shown)
VH: QVQLVQSGAEVMKPGSSVKVSCKASGYTFSWYHLEWVRQAPGHGLEWMGEIDPGTFTTNYNEKFKARVTFTADTSTSTAYMELSSLRSEDTAVYYCARFSHFSGHNYDYFDYWGQGTLVTVSS
VL: EIVMTQSPATLSVSPGERATLSCRASQHIGTNIHWYQQKPGQAPRLLIYYASESISGIPARFSGSGSGTEFTLTISSLQSEDFAVYYCQQSWSHPTTFGGGTKVEIK
notes: also called VK28H94H + VH33H100AH
B7: CL-2C mAb 14 (antibody, V domains shown)
VH: QVQLVQSGAEVMKPGSSVKVSCKASGYTFSWYHLEWVRQAPGHGLEWMGEIDPGTFTTNYNEKFKARVTFTADTSTSTAYMELSSLRSEDTAVYYCARFSHFSGHNYDYFDYWGQGTLVTVSS
VL: EIVMTQSPATLSVSPGERATLSCRASQSIGTNIHWYQQKPGQAPRLLIYHASESISGIPARFSGSGSGTEFTLTISSLQSEDFAVYYCQQSWSHPTTFGGGTKVEIK
notes: also called VK50H94H + VH33H100AH
B8: CL-2C mAb 10 (antibody, V domains shown)
VH: QVQLVQSGAEVMKPGSSVKVSCKASGYTFSWYWLEWVRQAPGHGLEWMGEIDPGTFTTNYNEKFKARVTFTADTSTSTAYMELSSLRSEDTAVYYCARFSHFSGSNYDYFDYWGQGTLVTVSS
VL: EIVMTQSPATLSVSPGERATLSCRASQSIGTNIHWYQQKPGQAPRLLIYHASESISGIPARFSGSGSGTEFTLTISSLQSEDFAVYYCHQSDSWPTTFGGGTKVEIK
notes: also called VK50H92D89H + VHWT
B9: CL-2C mAb 6 (antibody, V domains shown)
VH: QVQLVQSGAEVMKPGSSVKVSCKASGYTFSWYWLEWVRQAPGHGLEWMGEIDPGTFTTHYNEKFKARVTFTADTSTSTAYMELSSLRSEDTAVYYCARFSHFSGSHYDYFDYWGQGTLVTVSS
VL: EIVMTQSPATLSVSPGERATLSCRASQSIGTNIHWYQQKPGQAPRLLIYHASESISGIPARFSGSGSGTEFTLTISSLQSEDFAVYYCHQSDSWPTTFGGGTKVEIK
notes: also called VK50H92D89H + VH58H100BH
B10: CL-2C mAb 5 (antibody, V domains shown)
VH: QVQLVQSGAEVMKPGSSVKVSCKASGYTFSWYWLEWVRQAPGHGLEWMGEIDPGTFTTNYNEKFKARVTFTADTSTSTAYMELSSLRSEDTAVYYCARFSHFSGSNYDYFDYWGQGTLVTVSS
VL: EIVMTQSPATLSVSPGERATLSCRASQHIGTNIHWYQQKPGQAPRLLIYYASESISGIPARFSGSGSGTEFTLTISSLQSEDFAVYYCQQSWSHPTTFGGGTKVEIK
notes: also called VK28H94H + VHWT
B11: CL-2C mAb 3 (antibody, V domains shown)
VH: QVQLVQSGAEVMKPGSSVKVSCKASGYTFSWYHLEWVRQAPGHGLEWMGEIDPGTFTTNYNEKFKARVTFTADTSTSTAYMELSSLRSEDTAVYYCARFSHFSGSHYDYFDYWGQGTLVTVSS
VL: EIVMTQSPATLSVSPGERATLSCRASQHIGTNIHWYQQKPGQAPRLLIYYASESISGIPARFSGSGSGTEFTLTISSLQSEDFAVYYCQQSWSHPTTFGGGTKVEIK
notes: also called VK28H94H + VH33H100BH
B12: CL-2C mAb 11 (antibody, V domains shown)
VH: QVQLVQSGAEVMKPGSSVKVSCKASGYTFSWYWLEWVRQAPGHGLEWMGEIDPGTFTTHYNEKFKARVTFTADTSTSTAYMELSSLRSEDTAVYYCARFSHFSGSHYDYFDYWGQGTLVTVSS
VL: EIVMTQSPATLSVSPGERATLSCRASQSIGTNIHWYQQKPGQAPRLLIYHASESISGIPARFSGSGSGTEFTLTISSLQSEDFAVYYCQQSWSHPTTFGGGTKVEIK
notes: also called VK50H94H + VH58H100BH
B13: CL-2C mAb 15 (antibody, V domains shown)
VH: QVQLVQSGAEVMKPGSSVKVSCKASGYTFSWYWLEWVRQAPGHGLEWMGEIDPGTFTTNYNEKFKARVTFTADTSTSTAYMELSSLRSEDTAVYYCARFSHFSGSNYDYFDYWGQGTLVTVSS
VL: EIVMTQSPATLSVSPGERATLSCRASQSIGTNIHWYQQKPGQAPRLLIYHASESISGIPARFSGSGSGTEFTLTISSLQSEDFAVYYCQQSWSHPTTFGGGTKVEIK
notes: also called VK50H94H + VHWT
B14: CL-2C mAb 12 (antibody, V domains shown)
VH: QVQLVQSGAEVMKPGSSVKVSCKASGYTFSWYHLEWVRQAPGHGLEWMGEIDPGTFTTNYNEKFKARVTFTADTSTSTAYMELSSLRSEDTAVYYCARFSHFSGSNHDYFDYWGQGTLVTVSS
VL: EIVMTQSPATLSVSPGERATLSCRASQSIGTNIHWYQQKPGQAPRLLIYHASESISGIPARFSGSGSGTEFTLTISSLQSEDFAVYYCQQSWSHPTTFGGGTKVEIK
notes: also called VK50H94H + VH33H100CH
B15: CL-2C mAb 7 (antibody, V domains shown)
VH: QVQLVQSGAEVMKPGSSVKVSCKASGYTFSWYHLEWVRQAPGHGLEWMGEIDPGTFTTNYNEKFKARVTFTADTSTSTAYMELSSLRSEDTAVYYCARFSHFSGSNHDYFDYWGQGTLVTVSS
VL: EIVMTQSPATLSVSPGERATLSCRASQSIGTNIHWYQQKPGQAPRLLIYHASESISGIPARFSGSGSGTEFTLTISSLQSEDFAVYYCHQSDSWPTTFGGGTKVEIK
notes: also called VK50H92D89H + VH33H100CH

The binders below were run against T1, human immunoglobulin E (hIgE) (human, UniProt P01854-1 1-428) (assay: SPR (Biacore) on hIgE).
T1 construct: also called human IgE; Native IgE (Abcam)
T1 sequence (P01854 whole entry): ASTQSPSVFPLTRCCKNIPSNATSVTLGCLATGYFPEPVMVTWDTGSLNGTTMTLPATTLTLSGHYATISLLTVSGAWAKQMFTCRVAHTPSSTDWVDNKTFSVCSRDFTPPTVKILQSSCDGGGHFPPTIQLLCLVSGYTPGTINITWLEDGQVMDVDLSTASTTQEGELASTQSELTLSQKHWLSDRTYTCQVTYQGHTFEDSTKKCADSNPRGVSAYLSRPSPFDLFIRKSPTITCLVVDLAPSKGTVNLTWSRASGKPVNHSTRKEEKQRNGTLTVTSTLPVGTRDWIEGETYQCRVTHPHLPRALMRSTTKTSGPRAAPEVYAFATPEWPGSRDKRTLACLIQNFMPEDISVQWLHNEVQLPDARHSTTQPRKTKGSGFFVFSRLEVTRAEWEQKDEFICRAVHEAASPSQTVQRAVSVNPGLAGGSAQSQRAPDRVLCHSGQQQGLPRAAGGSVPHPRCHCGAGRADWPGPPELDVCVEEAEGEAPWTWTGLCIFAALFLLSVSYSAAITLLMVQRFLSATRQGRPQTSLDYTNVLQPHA
Experimental: The ratio of KD measured at pH 5.5 versus KD measured at pH 7.4 was calculated for each of the CL-2C antibodies.

First: B1
Second: B2
The “KD Ratio pH 5.5/pH 7.4” value of the first is lower: 4.6 for the first, 17.3 for the second.

First: B3
Second: B4
The “KD Ratio pH 5.5/pH 7.4” value of the first is lower: 2.5 for the first, 2.8 for the second.

Going from B5 to B6, the “KD Ratio pH 5.5/pH 7.4” value falls from 8.5 to 3.3.

Going from B7 to B8, the “KD Ratio pH 5.5/pH 7.4” value falls from 3.2 to 0.7.

Going from B9 to B10, the “KD Ratio pH 5.5/pH 7.4” value falls from 6.1 to 0.3.

First: B11
Second: B12
The “KD Ratio pH 5.5/pH 7.4” value of the first is higher: 8.4 for the first, 6 for the second.

First: B13
Second: B14
The “KD Ratio pH 5.5/pH 7.4” value of the first is lower: 1.1 for the first, 3.9 for the second.

In the case of B15, the “KD Ratio pH 5.5/pH 7.4” value is reported as 7.9.
